Biological target: murine c-Met polypeptide (Met receptor as expressed on DA3 mouse mammary adenocarcinoma cells) (mouse) (UniProt P16056)
Test: cell-based or functional assay

in vitro invasion through Matrigel (invading cells per filter, DA3 cells, HGF/SF 100 ng/ml) (cells per filter): 80
Substance: Hepatocyte growth factor/scatter factor (HGF/SF) (ligand)

— patent US7872117
